Biological target: serum immunoglobulin M (IgM), endogenous mouse (mouse (endogenous in C57BL/6 mice))
Experiment: SEC + other: SDS-PAGE with western blot keeping disulfide bonds; peritoneal fluid and serum of healthy WT mice (0 h); 7.5% SDS-PAGE under conditions that prevent disruption of CD5L-IgM disulfide bonds, western blot for CD5L, densitometry of IgM-bound and free bands; WT serum also fractionated on Superose 12 10/300 GL in PBS and fractions blotted for CD5L and IgM

B1: CD5 antigen-like (CD5L), endogenous mouse protein (natural protein)
chain: ESPTKVQLVGGAHRCEGRVEVEHNGQWGTVCDDGWDRRDVAVVCRELNCGAVIQTPRGASYQPPASEQRVLIQGVDCNGTEDTLAQCELNYDVFDCSHEEDAGAQCENPDSDLLFIPEDVRLVDGPGHCQGRVEVLHQSQWSTVCKAGWNLQVSKVVCRQLGCGRALLTYGSCNKNTQGKGPIWMGKMSCSGQEANLRSCLLSRLENNCTHGEDTWMECEDPFELKLVGGDTPCSGRLEVLHKGSWGSVCDDNWGEKEDQVVCKQLGCGKSLHPSPKTRKIYGPGAGRIWLDDVNCSGKEQSLEFCRHRLWGYHDCTHKEDVEVICTDFDV
- percent of CD5L bound to IgM: > 90%

Reference: PMC11096381
